{"source": "patent US20250262210A1", "about": "(TRUSTEES OF COLUMBIA UNIVERSITY IN THE CITY OF NEW YORK, published 2025)", "binders": {"B1": {"name": "LZTR1 R810W-FLAG (other, human, UniProt Q8N653 1-840, looked up)", "chain": "MAGPGSTGGQIGAAALAGGARSKVAPSVDFDHSCSDSVEYLTLNFGPFETVHRWRRLPPCDEFVGARRSKHTVVAYKDAIYVFGGDNGKTMLNDLLRFDVKDCSWCRAFTTGTPPAPRYHHSAVVYGSSMFVFGGYTGDIYSNSNLKNKNDLFEYKFATGQWTEWKIEGRLPVARSAHGATVYSDKLWIFAGYDGNARLNDMWTIGLQDRELTCWEEVAQSGEIPPSCCNFPVAVCRDKMFVFSGQSGAKITNNLFQFEFKDKTWTRIPTEHLLRGSPPPPQRRYGHTMVAFDRHLYVFGGAADNTLPNELHCYDVDFQTWEVVQPSSDSEVGGAEVPERACASEEVPTLTYEERVGFKKSRDVFGLDFGTTSAKQPTQPASELPSGRLFHAAAVISDAMYIFGGTVDNNIRSGEMYRFQFSCYPKCTLHEDYGRLWESRQFCDVEFVLGEKEECVQGHVAIVTARSRWLRRKITQARERLAQKLEQEAAPVPREAPGVAAGGARPPLLHVAIREAEARPFEVLMQFLYTDKIKYPRKGHVEDVLLIMDVYKLALSFQLCRLEQLCRQYIEASVDLQNVLVVCESAARLQLSQLKEHCLNFVVKESHFNQVIMMKEFERLSSPLIVEIVRRKQQPPPRTPLDQPVDIGTSLIQDMKAYLEGAGAEFCDITLLLDGHPRPAHKAILAARSSYFEAMFRSFMPEDGQVNISIGEMVPSRQAFESMLRYIYYGEVNMPPEDSLYLFAAPYYYGFYNNRLQAYCKQNLEMNVTVQNVLQILEAADKTQALDMKRHCLHIIVHQFTKVSKLPTLWSLSQQLLLDIIDSLASHISDKQCAELGADI", "notes": "Stably expressed in U87 cells by lentivirus; also called LZTR1-FLAG-R810W; LZTR1 RW; not shown: FLAG tag"}}, "key": {"USP47": {"biological_target": "T1, USP47 (human, UniProt Q96K76 1-1375, limits assumed)", "T1 sequence (looked up)": "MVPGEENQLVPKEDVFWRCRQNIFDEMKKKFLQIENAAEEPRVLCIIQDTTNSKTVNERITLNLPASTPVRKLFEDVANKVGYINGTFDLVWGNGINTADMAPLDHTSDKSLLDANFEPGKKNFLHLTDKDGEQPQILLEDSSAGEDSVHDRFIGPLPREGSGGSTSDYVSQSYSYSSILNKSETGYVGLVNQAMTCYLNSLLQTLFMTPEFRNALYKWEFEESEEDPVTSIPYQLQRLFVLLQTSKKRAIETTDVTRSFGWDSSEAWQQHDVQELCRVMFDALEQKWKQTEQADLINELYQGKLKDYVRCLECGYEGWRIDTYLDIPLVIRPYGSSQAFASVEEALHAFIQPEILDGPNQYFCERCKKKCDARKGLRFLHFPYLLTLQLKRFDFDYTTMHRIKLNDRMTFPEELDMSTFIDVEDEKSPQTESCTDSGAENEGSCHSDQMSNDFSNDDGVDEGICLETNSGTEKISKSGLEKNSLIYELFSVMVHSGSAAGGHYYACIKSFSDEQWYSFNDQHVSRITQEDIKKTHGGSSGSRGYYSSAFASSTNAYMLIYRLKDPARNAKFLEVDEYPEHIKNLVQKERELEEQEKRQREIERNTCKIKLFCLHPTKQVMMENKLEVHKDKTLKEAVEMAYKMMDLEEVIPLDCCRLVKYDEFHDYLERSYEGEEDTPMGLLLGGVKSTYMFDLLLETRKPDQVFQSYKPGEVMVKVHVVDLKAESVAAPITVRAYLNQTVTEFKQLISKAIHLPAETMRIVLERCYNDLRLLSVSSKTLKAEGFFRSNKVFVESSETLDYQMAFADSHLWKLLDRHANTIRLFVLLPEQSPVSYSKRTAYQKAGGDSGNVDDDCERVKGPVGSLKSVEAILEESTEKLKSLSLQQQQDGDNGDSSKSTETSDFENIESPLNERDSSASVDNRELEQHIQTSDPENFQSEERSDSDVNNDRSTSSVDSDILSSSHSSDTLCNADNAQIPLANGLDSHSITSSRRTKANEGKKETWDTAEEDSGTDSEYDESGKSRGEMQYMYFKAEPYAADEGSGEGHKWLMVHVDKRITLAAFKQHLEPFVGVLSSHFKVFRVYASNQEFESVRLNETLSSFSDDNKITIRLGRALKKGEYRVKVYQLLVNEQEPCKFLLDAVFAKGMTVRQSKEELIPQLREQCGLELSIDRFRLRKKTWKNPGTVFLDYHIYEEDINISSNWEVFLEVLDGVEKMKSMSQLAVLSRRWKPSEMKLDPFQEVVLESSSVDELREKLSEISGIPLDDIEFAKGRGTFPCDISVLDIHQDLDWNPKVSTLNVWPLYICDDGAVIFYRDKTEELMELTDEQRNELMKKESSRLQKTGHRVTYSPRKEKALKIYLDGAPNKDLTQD", "assay": "IP/MS, LZTR1 R810W-FLAG, U87", "how_it_was_run": "(§1)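 Extracted peptides in 3% acetonitrile/0.1% formic acid ran on a 50 cm C18 column into an Orbitrap Fusion, with MaxQuant identification and spectral counting.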"}, "SNX14": {"biological_target": "T2, SNX14 (human, UniProt Q9Y5W7 1-946, limits assumed)", "T2 sequence (looked up)": "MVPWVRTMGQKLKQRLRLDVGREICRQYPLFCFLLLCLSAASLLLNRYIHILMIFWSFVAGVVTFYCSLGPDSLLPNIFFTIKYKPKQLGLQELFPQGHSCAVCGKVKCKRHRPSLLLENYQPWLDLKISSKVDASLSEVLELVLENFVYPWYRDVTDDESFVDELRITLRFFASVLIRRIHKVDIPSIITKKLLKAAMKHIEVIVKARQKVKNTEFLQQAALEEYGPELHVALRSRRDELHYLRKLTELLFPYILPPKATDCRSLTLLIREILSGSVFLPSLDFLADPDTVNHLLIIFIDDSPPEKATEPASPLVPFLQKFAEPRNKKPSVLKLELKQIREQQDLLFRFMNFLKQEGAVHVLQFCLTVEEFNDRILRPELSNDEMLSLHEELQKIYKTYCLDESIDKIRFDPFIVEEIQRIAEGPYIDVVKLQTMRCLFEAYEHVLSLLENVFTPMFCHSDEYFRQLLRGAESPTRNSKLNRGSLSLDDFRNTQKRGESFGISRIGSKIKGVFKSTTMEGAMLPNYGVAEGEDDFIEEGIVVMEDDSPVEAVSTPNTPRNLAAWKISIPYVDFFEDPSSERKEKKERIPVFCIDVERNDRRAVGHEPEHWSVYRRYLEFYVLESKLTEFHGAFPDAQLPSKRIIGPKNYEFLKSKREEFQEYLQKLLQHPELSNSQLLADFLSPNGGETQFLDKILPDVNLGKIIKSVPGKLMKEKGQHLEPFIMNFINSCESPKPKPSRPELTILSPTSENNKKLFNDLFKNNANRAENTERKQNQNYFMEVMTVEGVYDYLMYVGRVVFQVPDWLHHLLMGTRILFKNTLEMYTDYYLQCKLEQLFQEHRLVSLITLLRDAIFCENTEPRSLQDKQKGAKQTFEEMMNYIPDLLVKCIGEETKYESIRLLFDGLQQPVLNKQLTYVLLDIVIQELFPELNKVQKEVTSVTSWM", "assay": "IP/MS, LZTR1 R810W-FLAG, U87", "how_it_was_run": "as §1"}}, "data": [{"binder": "B1", "values": [{"measurement": "binding result", "setting": "USP47", "result": "binds"}, {"measurement": "binding result", "setting": "SNX14", "result": "binds"}]}]}
